In patent US20160289285A1 (Molecular Partners, published 2016) one finds binding result and Kd data, which are given here for 28 molecules.

First the molecules themselves.
B1: Protein #57 (designed binder)
chain: MRGSHHHHHHGSDLGKKLLEAARAGQDDEVRILMANGADVNAKDYFSHTPLHLAARNGHLKIVEVLLKAGADVNAKDFAGKTPLHLAANDGHLEIVEVLLKHGADVNAQDIFGKTPADIAADAGHEDIAEVLQKLGSPTPTPTTPTPTPTTPTPTPTGSRSDLDITGLKLN
B2: Protein #53 (designed binder)
chain: MRGSHHHHHHGSDLGKKLLEAARAGQDDEVRFLMANGADVNAADERGTTPLHLAAVYGHLEIVEVLLKNGADVNAQNETGYTPLHLADSSGHLEIVEVLLKHSADVNAQDKFGKTAFDISIDNGNEDLAEILQKAA
B3: Protein #51 (designed binder)
chain: MRGSHHHHHHGSDLGKKLLEAARAGQDDEVRILMANGADVNAKDYFSHTPLHLAARNGHLKIVEVLLKAGADVNAKDFAGKTPLHLAANDGHLEIVEVLLKHGADVNAQDIFGKTPADIAADAGHEDIAEVLQKAA
B4: Protein #43 (designed binder)
chain: MRGSHHHHHHGSDLGKKLLEAARAGQDDEVRILMANGADVNAADYFSHTPLHLAARDGHLKIVEVLLKYGADVNASDFAGKTPLHLAANDGHLEIVEVLLKHGADVNAQDIFGKTAFDISIDNGNEDLAEILQKAA
B5: Protein #45 (designed binder)
chain: MRGSHHHHHHGSDLGKKLLEAARAGQDDEVRILMANGADVNAKDYFSHTPLHLAARNGHLEIVEVLLKAGADVNAKDFAGKTPLHLAANDGHLEIVEVLLKHGADVNAQDIFGKTPADIAADAGHEDIAEVLQKAA
B6: Protein #44 (designed binder)
chain: MRGSHHHHHHGSDLDKKLLEAARAGQDDEVRILMANGADVNAKDYFSHTPLHLAARNGHLEIVEVLLKAGADVNAKDFAGKTPLHLAANDGHLEIVEVLLKHGADVNAQDIFGKTPADIAADAGHEDIAEVLQKAA
B7: Protein #46 (designed binder)
chain: MRGSHHHHHHGSDLGKKLLEAARAGQDDEVRILLAAGADVNAKDYFSHTPLHLAARNGHLKIVEVLLKAGADVNAKDFAGKTPLHLAANDGHLEIVEVLLKHGADVNAQDIFGKTPADIAADAGHEDIAEVLQKAA
B8: Protein #47 (designed binder)
chain: MRGSHHHHHHGSDLDKKLLEAARAGQDDEVRILMANGADVNAKDYFSHTPLHLAARNGHLKIVEVLLKAGADVNAKDFAGKTPLHLAANDGHLEIVEVLLKHGADVNAQDIFGKTPADIAADAGHEDIAEVLQKAA
B9: Protein #50 (designed binder)
chain: MRGSHHHHHHGSDLGKKLLEAARAGQDDEVRELLKAGADVNAKDYFSHTPLHLAARNGHLKIVEVLLKAGADVNAKDFAGKTPLHLAANEGHLEIVEVLLKAGADVNAQDIFGKTPADIAADAGHEDIAEVLQKAA
B10: Protein #48 (designed binder)
chain: MRGSHHHHHHGSDLGKKLLEAARAGQDDEVRILLKAGADVNAKDYFSHTPLHLAARNGHLKIVEVLLKAGADVNAKDFAGKTPLHLAANDGHLEIVEVLLKAGADVNAQDIFGKTPADIAADAGHEDIAEVLQKAA
B11: Protein #49 (designed binder)
chain: MRGSHHHHHHGSDLGKKLLEAARAGQDDEVRELLKAGADVNAKDYFSHTPLHLAARNGHLKIVEVLLKAGADVNAKDFAGKTPLHLAANDGHLEIVEVLLKAGADVNAQDIFGKTPADIAADAGHEDIAEVLQKAA
B12: Protein #52 (designed binder)
chain: MRGSHHHHHHGSDLDKKLLEAARAGQDDEVRILMANGADVNAKDERGTTPLHLAAVYGHLEIVEVLLKAGADVNAKNETGYTPLHLADSSGHLEIVEVLLKHSADVNAQDKSGKTPADLAADAGHEDIAEVLQKAA
B13: Protein #54 (designed binder)
chain: MRGSHHHHHHGSDLDKKLLEAARAGQDDEVRILMANGADVNAKDERGTTPLHLAAVYGHLEIVEVLLKAGADVNAKNETGYTPLHLADSSGHLEIVEVLLKAGADVNAQDKSGKTPADLAADAGHEDIAEVLQKAA
B14: Protein #55 (designed binder)
chain: MRGSHHHHHHGSDLDKKLLEAARAGQDDEVRILMANGADVNAKDERGTTPLHLAAVYGHLEIVEVLLKAGADVNAKNETGYTPLHLADSSGHLEIVEVLLKHGADVNAQDKSGKTPADLAADAGHEDIAEVLQKAA
B15: Protein #56 (designed binder)
chain: MRGSHHHHHHGSDLDKKLLEAARAGQDDEVRILMANGADVNAKDERGTTPLHLAAVYGHLEIVEVLLKAGADVNAKNETGYTPLHLADSSGHLEIVEVLLKASADVNAQDKSGKTPADLAADAGHEDIAEVLQKAA
B16: Protein #40 (designed binder)
chain: MRGSHHHHHHGSDLGKKLLEAARAGQDDEVRILMASGADVNAADYFSHTPLHLAARDGHLKIVEVLLKYGADVDASDFAGKTPLHLAANDGHLEIVEVLLKHDADVNAQDKFGKTAFDISIDNGNEDLAEILQKAA
B17: Protein #41 (designed binder)
chain: MRGSHHHHHHGSDLGKELLEAARAGQDDEVRILMANGADVNAADYFGHTPLHLAARNGHLKIVEVLLKYGADVNASDFAGKTPLHLAANDGHLEIVEVLLKHGADVNAQDIFGKTAFEISIDNGNEDLAEILQKAA
B18: Protein #42 (designed binder)
chain: MRGSHHHHHHGSDLGKKLLEAARAGQDDEVRILMANGADVNAADYFGHTPLHLAARDGHLKIVEVLLKYGADVNASDFAGKTPLHLAANDGHLEIVEVLLKHGADVNAQDKFGKTAFDISIDNGNEDLAEILQKAA
B19: Protein #24 (designed binder)
chain: MRGSHHHHHHGSDLGKKLLEAARAGQDDEVRILMANGADVNAKDRFGDTPLHLAADIGHLEIVEVLLKAGADVNAKDWFGNTPLHLAASFGHLEIVEVLLKAGADVNAKDDYGNTPLHLAANTGHLEIVEVLLKAGADVNAQDKFGKTAFDISIDNGNEDLAEILQKAA
B20: Protein #35 (designed binder)
chain: MRGSHHHHHHGSDLGKKLLEAARAGQDDEVRILMANGADVNANDFLGLTPLHLAASTGHLEIVEVLLKYGADVNAIDAYGHTPLHLAANNGHLEIVEVLLKYGADVNAIDHFGYTPLHLAAMFGHLEIVEVLLKNGADVNAQDKFGKTAFDISIDNGNEDLAEILQKAA
B21: Protein #25 (designed binder)
chain: MRGSHHHHHHGSDLGKKLLEAARAGQDDEVRILMANGADVNAKDRYGDTPLHLAADIGHLEIVEVLLKAGADVNAEDYFGNTPLHLAASYGHLEIVEVLLKAGADVNAKDDYGNTPLHLAANTGHLEIVEVLLKAGADVNAQDKSGKTPADLAADAGHEDIAEVLQKAA
B22: Protein #27 (designed binder)
chain: MRGSHHHHHHGSDLGKKLLEAARAGQDDEVRILLKAGADVNAKDRYGDTPLHLAADAGHLKIVEVLLKAGADVNAEDYFGNTPLHLAASAGHLEIVEVLLKAGADVNAKDDAGNTPLHLAANTGHLKIVEVLLKAGADVNAQDKSGKTPADLAADAGHEDIAEVLQKAA
B23: Protein #32 (designed binder)
chain: MRGSHHHHHHGSDLGKKLLEAARAGQDDEVRILMANGADVNAIDTWGNTPLHLAADYGHLEIVEVLLKNGADVNALDWFGDTPLHLAASLGHLEIVEVLLKNGADVNAVDTYGNTPLHLAANTGRLEIVEVLLKYGADVNAQDKFGKTAFDISIDNGNEDLAEILQKAA
B24: Protein #36 (designed binder)
chain: MRGSHHHHHHGSDLGKKLLEAARAGQDDEVRILMANGADVNANDSSGLTPLHLAAFYGHLEIVEVLLKYGADVNADDDWGHTPLHLAAHYGHLEIVEVLLKHGADVNAIDTRGLTPLHLAAIAGHLEIVEVLLKYGADVNAQDKFGKTAFDISIDNGNEDLAEILQKAA
B25: Protein #30 (designed binder)
chain: MRGSHHHHHHGSDLGKKLLEAARAGQDDEVRILMANGADVNTHDNFGDTPLHLAASIGHLEIVEVLLKHGADVNAFDSYGDTPLHLAASSGHLEIVEVLLKYGADVNALDYNGNTPLHLAANSGRLEIVEVLLKHGADVNAQDKFGKTAFDISIDNGNEDLAEILQKAA
B26: Protein #31 (designed binder)
chain: MRGSHHHHHHGSDLGKKLLEAARAGQDDEVRILMANGADVNAVDAWGDTPLHLAASIGHLEIVEVLLKNGADVNAADYYGDTPLHLAASAGHLEIVEVLLKYGADVNAQDDNGNTPLHLAANTGRLEIVEVLLKHGADVNAQDKFGKTAFDISIDNGNEDLAEILQKAA
B27: Protein #33 (designed binder)
chain: MRGSHHHHHHGSDLGKKLLEAARAGQDDEVRILMANGADVNAQDRWGDTPLHLAASAGHLKIVEVLLKYGADVNADDVFGDTPLHLAASLGHLEIVEVLLKYGADVNADDYAGNTPLHLAANTGHLEIVEVLLKHGADVNAQDKFGKTAFDISIDNGNEDLAEILQKAA
B28: Protein #34 (designed binder)
chain: MRGSHHHHHHGSDLGKKLLEAARAGQDDEVRILMANGADVNAQDRWGDTPLHLAASAGHLKIVEVLLKYGADVNADDVFGDTPLHLAASLGHLEIVEVLLKYGADVNADDYAGNTPLHLAANTGHLEIVEVLLKYGADVNAQDKFGKTAFDISIDNGNEDLAEILQKAA

In the first test the target is T1, human serum albumin (human, UniProt P02768 25-609).
T1 construct: For SEC-MALS purified from CSL Behring 20% solution; also called HSA; SA (human)
T1 sequence (P02768 25-609 limits assumed): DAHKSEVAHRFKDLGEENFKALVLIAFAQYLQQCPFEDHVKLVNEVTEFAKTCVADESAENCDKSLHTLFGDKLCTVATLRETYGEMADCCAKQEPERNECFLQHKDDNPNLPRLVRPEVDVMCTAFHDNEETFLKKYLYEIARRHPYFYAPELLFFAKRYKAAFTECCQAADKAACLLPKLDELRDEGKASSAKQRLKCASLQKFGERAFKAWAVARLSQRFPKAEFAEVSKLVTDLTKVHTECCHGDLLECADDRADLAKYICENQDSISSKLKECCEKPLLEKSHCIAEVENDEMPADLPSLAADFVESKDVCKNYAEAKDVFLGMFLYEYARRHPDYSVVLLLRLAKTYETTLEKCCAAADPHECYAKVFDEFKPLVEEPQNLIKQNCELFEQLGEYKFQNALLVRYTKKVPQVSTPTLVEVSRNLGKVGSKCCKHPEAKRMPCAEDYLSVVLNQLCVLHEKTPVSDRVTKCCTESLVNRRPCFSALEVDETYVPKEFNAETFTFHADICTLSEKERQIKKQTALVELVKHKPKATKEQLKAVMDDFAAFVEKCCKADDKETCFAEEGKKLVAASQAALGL
Kind of test: SPR (ProteOn). On the procedure: (§1) SPR was measured using a ProteOn instrument (BioRad) and measurement was performed according standard procedures known to the person skilled in the art.
As for B1, the binding result is listed as “binds”.

Take B2: the binding result is “binds”. Consider B3, for which the Kd – broadly, a measure of binding affinity in units of concentration – was determined as 14 nM. For B4, the binding result is listed as “binds”. In turn, B5 returned a Kd of 13 nM. In turn, B6 came in with a Kd of 26 nM. On the same count and under the same terms, to B7 belongs 22 nM; to B8, 27 nM.

Regarding B9, the Kd is 27 nM.

The molecule B10 showed a Kd of 20 nM. This Kd and that of the molecule before are within 1.5-fold of each other.

With B11, binding was put at a Kd of 15 nM. The Kd values of the last two molecules are within 1.5-fold of each other. Still for that read-out and setting: to B12 belongs 6 nM; to B13, 11 nM; to B14, 15 nM. For B15, the binding result is “binds”. The same measure, in the same setting: to B16 belongs “binds”; to B17, “binds”. The same measure, in the same setting: to B18 belongs “binds”.

The target in another test is T2, human HGF (human, UniProt P14210 32-728).
T2 construct: also called hepatocyte growth factor
T2 sequence (P14210 32-728 limits assumed): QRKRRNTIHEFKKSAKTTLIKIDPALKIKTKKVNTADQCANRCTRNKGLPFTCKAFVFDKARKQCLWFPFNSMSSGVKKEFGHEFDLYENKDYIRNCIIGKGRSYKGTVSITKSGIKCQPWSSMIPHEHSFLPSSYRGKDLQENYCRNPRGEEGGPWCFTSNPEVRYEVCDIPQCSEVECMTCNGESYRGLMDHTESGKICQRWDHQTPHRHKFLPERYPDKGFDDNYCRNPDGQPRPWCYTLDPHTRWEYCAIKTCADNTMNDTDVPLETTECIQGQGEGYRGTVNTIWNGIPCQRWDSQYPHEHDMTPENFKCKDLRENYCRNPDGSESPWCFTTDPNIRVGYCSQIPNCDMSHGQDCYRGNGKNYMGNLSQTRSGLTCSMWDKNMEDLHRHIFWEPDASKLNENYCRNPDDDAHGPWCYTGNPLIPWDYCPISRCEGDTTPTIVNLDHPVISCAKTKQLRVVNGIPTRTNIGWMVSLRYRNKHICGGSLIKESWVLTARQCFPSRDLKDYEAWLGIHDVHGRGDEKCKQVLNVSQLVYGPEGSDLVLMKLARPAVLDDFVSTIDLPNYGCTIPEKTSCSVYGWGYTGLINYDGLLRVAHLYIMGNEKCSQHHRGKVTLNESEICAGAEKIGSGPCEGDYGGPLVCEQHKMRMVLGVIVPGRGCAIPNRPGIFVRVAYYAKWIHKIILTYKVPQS
Nature of the test: SPR (ProteOn). On the procedure:
as §1
For the molecule B19, the Kd turned out to be 0.163 nM. This lies in the sub-nanomolar range. Take B20: the binding result was “binds”. In the case of B21, the Kd came to 0.066 nM. On the same count and under the same terms, to B22 belongs 0.129 nM. As for B23, the binding result was “binds”.

As to B24, the binding result is “binds”. Same read-out and setting: to B25 belongs “binds”. On the same count and under the same terms, to B26 belongs “binds”; to B27, “binds”. Take B28: the binding result is given as “binds”.
